What is called Kd is the equilibrium constant for the complex coming apart. A lower Kd goes with a tighter complex.

Where no end group is shown, it is not given here. The star is where a group is joined. NBD = O=[N+]([O-])c1ccc(*)c2nonc12

These results are taken from article PMC7054360, “pH-responsive high stability polymeric nanoparticles for targeted delivery of anticancer therapeutics” (Communications Biology, 2020).

The experiment has as its target T1, bovine serum albumin (bovine, UniProt P02769 25-607).
T1 construct: bovine serum albumin; Free BSA in PBS, not the crosslinked BSA shell of the nanoparticles; also called BSA; source: bought: Sigma
The experiment is described as follows: fluorescence polarisation; fluorescence anisotropy of NBD; constant 0.4 uM ATRAM-NBD, increasing BSA (0.25-15 uM); PBS; room temperature; excitation 460 nm, emission 535 nm. To be noted: both partners purified. (In general: Polarisation of emitted light reports the rotation of a fluorescent probe.)

T1 sequence (P02769 25-607): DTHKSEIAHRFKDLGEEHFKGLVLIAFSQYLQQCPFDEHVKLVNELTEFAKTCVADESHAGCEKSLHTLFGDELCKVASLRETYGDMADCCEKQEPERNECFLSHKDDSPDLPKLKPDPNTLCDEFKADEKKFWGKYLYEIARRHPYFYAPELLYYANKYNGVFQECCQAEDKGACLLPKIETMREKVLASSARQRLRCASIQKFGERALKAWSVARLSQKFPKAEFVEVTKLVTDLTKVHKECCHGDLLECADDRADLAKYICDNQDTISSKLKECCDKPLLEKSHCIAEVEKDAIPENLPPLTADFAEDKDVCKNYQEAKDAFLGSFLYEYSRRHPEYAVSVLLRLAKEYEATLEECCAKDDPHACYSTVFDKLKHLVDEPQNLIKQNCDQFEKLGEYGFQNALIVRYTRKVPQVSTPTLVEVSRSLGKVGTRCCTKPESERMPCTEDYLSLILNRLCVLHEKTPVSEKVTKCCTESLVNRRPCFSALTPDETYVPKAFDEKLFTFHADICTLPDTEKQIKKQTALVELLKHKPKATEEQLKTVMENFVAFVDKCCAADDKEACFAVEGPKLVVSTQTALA

B1: NBD-labeled ATRAM (acidity-triggered rational membrane peptide), C-terminal cysteine variant (peptide)
peptide: GLAGLAGLLGLEGLLGLPLGLLEGLWLGLELEC(NBD)N
notes: designed pH-responsive ATRAM peptide, variant with a cysteine (underlined in print) next to the C-terminal residue; also called ATRAM-NBD; source: C-terminal cysteine ATRAM variant labelled with NBD; purified by PD-10 gel filtration and reverse-phase HPLC (parent ATRAM peptide: synthesized by Selleck Chemicals, Fmoc)
As to B1, binding was put at a Kd of 295 nM.
